According to paper PMC3508906 (Channels, 2012):

Molecular target: the molecule itself
Assay: SEC-MALS

Protein	stoichiometry N
YbiO, C-terminally His-tagged (pYbiO) (natural protein, E. coli K12 MG1655, UniProt P75783 19-741, looked up) VSIPGVTTTTTTDSTTEPAPEPDIEQKKAAYGALADVLDNDTSRKELIDQLRTVAATPPAEPVPKIVPPTLVEEQTVLQKVTEVSRHYGEALSARFGQLYRNITGSPHKPFNPQTFSNALTHFSMLAVLVFGFYWLIRLCALPLYRKMGQWARQKNRERSNWLQLPAMIIGAFIIDLLLLALTLFVGQVLSDNLNAGSRTIAFQQSLFLNAFALIEFFKAVLRLIFCPNVAELRPFTIQDESARYWSRRLSWLSSLIGYGLIVAVPIISNQVNVQIGALANVIIMLCMTVWALYLIFRNKKEITQHLLNFAEHSLAFFSLFIRAFALVWHWLASAYFIVLFFFSLFDPGNSLKFMMGATVRSLAIIGIAAFVSGMFSRWLAKTITLSPHTQRNYPELQKRLNGWLSAALKTARILTVCVAVMLLLSAWGLFDFWNWLQNGAGQKTVDILIRIALILFFSAVGWTVLASLIENRLASDIHGRPLPSARTRTLLTLFRNALAVIISTITIMIVLSEIGVNIAPLLAGAGALGLAISFGSQTLVKDIITGVFIQFENGMNTGDLVTIGPLTGTVERMSIRSVGVRQDTGAYHIIPWSSITTFANFVRGIGSVVANYDVDRHEDADKANQALKDAVAELMENEEIRGLIIGEPNFAGIVGLSNTAFTLRVSFTTLPLKQWTVRFALDSQVKKHFDLAGVRAPVQTYQVLPAPGATPAEPLPPGEPTL	7
YnaI, C-terminally His-tagged (pYnaI) (natural protein, E. coli, UniProt P0AEB5 1-343, looked up) MIAELFTNNALNLVIIFGSCAALILMSFWFRRGNRKRKGFLFHAVQFLIYTIIISAVGSIINYVIENYKLKFITPGVIDFICTSLIAVILTIKLFLLINQFEKQQIKKGRDITSARIMSRIIKITIIVVLVLLYGEHFGMSLSGLLTFGGIGGLAVGMAGKDILSNFFSGIMLYFDRPFSIGDWIRSPDRNIEGTVAEIGWRITKITTFDNRPLYVPNSLFSSISVENPGRMTNRRITTTIGLRYEDAAKVGVIVEAVREMLKNHPAIDQRQTLLVYFNQFADSSLNIMVYCFTKTTVWAEWLAAQQDVYLKIIDIVQSHGADFAFPSQTLYMDNITPPEQGR	7
